The target in the assay is EGF receptor (UniProt P00533). As to the kind of experiment: cell-based or functional assay.

A value given as a limit tells only on which side of the number the result lay.

In turn, “IFNα-2a (R144A) - (Gly4Ser)7 - EGF chimeric activator (from UniProt P01563 24-188; P01133 23-1207)” had an inhibition of proliferation and survival of Daudi-EGFR cells (WST-1), potency against the corresponding IFNα2a mutant alone of 100 fold. With “IFNα-2a (R149A) - (Gly4Ser)7 - EGF chimeric activator (from UniProt P01563 24-188; P01133 23-1207)”, the specificity of IFNα signaling, Daudi-EGFR against parental Daudi cells was over 20 fold.

(Values after patent US20170306030A1.)
